From PMC12727526, “Carbon-monoxide-driven bioethanol production operates through a tungsten-dependent catalyst” (Nature Chemical Biology, 2025)
Blank lines part the entries; values can stand above or below the molecule they belong to.

Columns and labels:
CaAFOR (AOR1) = target: T1, CaAFOR (AOR1) (Clostridium autoethanogenum, UniProt A0ABM5NPY3); conditions: pH 5.5 or 6.5, 37 °C; CO-driven, ferredoxin, CODH/ACS, S. cerevisiae ADH, 0.2 mM NADH; total sodium acetate; apparent
T1 construct: gene CAETHG_0092
T1 sequence (A0ABM5NPY3 1-607): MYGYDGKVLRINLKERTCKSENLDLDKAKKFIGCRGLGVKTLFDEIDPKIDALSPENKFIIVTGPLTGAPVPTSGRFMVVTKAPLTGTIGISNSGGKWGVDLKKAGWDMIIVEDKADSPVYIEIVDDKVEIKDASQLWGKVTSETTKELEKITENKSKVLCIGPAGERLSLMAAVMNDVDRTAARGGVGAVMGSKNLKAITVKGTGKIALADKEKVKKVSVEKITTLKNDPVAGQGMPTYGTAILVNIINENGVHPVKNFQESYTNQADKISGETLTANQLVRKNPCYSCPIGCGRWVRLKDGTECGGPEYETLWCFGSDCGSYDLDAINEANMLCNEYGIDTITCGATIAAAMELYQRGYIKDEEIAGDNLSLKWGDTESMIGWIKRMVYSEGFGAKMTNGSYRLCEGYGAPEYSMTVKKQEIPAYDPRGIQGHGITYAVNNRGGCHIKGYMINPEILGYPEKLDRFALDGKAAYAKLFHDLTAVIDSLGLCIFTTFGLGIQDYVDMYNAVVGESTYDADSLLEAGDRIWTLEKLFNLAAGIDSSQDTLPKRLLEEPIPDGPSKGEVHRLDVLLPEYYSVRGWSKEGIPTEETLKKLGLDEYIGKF

purified protein [1] = substrate: CC(=O)O; experiment: purified protein; conditions: pH 5.5, 37 °C, CO-driven, ferredoxin, CODH/ACS, S. cerevisiae ADH, 0.2 mM NADH, concentration of protonated acid calculated from total acetate with pKa 4.76, apparent, estimated
purified protein [2] = substrate: CCCC=O; experiment: purified protein; type: biochemical, Clostridium autoethanogenum; conditions: pH 8.0 (50 mM Tris-HCl), 37 °C, 5 mM methyl viologen, anaerobic, enzyme reactivated by preincubation with ferredoxin, apparent
purified protein [3] = substrate: CCC=O; experiment: purified protein; type: biochemical, Clostridium autoethanogenum; conditions: pH 8.0 (50 mM Tris-HCl), 37 °C, 5 mM methyl viologen, anaerobic, enzyme reactivated by preincubation with ferredoxin, apparent
purified protein [4] = substrate: CC=O; experiment: purified protein; type: biochemical, Clostridium autoethanogenum; conditions: pH 8.0 (50 mM Tris-HCl), 37 °C, 5 mM methyl viologen, anaerobic, enzyme reactivated by preincubation with ferredoxin, apparent

- kM^app (CaAFOR (AOR1)): the high kM^app of CaAFOR for acetate
Molecule: CC(=O)O [acetate]

B1: CaAFOR (AOR1) (Clostridium autoethanogenum DSM 10061) (protein)
chain: T1 sequence (A0ABM5NPY3 1-607)
notes: native anaerobic purification from CO-grown cells; full length, no tag; monomer, expected mass 66,335 Da; holds [4Fe-4S] and tungstopterin
- Km (purified protein [1]): 1630 µM
- Km (purified protein [2]): 53.47 ± 19.45 µM
- kcat (purified protein [2]): 4.27 ± 0.48 s⁻¹
- Km (purified protein [3]): 165.51 ± 50.50 µM
- kcat (purified protein [3]): 10.35 ± 1.06 s⁻¹
- Km (purified protein [4]): 54.40 ± 12.55 µM
- kcat (purified protein [4]): 4.42 ± 0.31 s⁻¹
